B1: TPR 5TU (parent)
chain: GGAUCUUCUCGAUCUAACAAAAAAGACAAAUCUGCCACAAAGCUUGAGAGCAUCUUCGGAUGCAGAGGCGGCAGCCUUCGGUGGCGCGAUAGCGCCAACGUUCUCAACUAUGACACGCAAAACGCGUGCUCCGUUGAAUGGAGUUUAUCAUG

This sample holds only a part of the variants without activity.

The variants in the series derive from B1. Nature of the series: polymerase ribozyme fitness, log enrichment relative to wild type (log ratio); higher = more active; in vitro selection for triplet polymerase activity. The procedure, abridged:
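Streptavidin-bead capture of gel-excised extended constructs, followed by RT-PCR, closed a single triplicate in vitro selection round. That round began by annealing PCR-built, transcribed mutant libraries of each subunit of a heterodimeric triplet polymerase ribozyme with a biotinylated primer, the partner subunit and triplets, then incubating them frozen at −7 °C. After Illumina sequencing of inputs and outputs, genotypes needed ≥10 input reads and ≥1 read per output. Fitness is the base-2 logarithm of genotype enrichment over wild-type enrichment, using inverse-variance-weighted replicate averages.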
For the variant A40U C79U A121G, the “polymerase ribozyme fitness (log ratio)” value was -2.75.

Consider A40C U44G U53A C87G A107U A121U G124C U130A G143A, for which the “polymerase ribozyme fitness (log ratio)” value is no more than -4.2.

Turning to A40C A97U, the “polymerase ribozyme fitness (log ratio)” value was -0.185.

For A40C A97C, the “polymerase ribozyme fitness (log ratio)” value amounted to 1.5.

Take A40U A49C C72A C95U C99G A138C: the “polymerase ribozyme fitness (log ratio)” value is no more than -4.2.

In the case of A40U G62A C95U U104C G133C, the “polymerase ribozyme fitness (log ratio)” value was -3.3.

For the variant A40C A89U, the “polymerase ribozyme fitness (log ratio)” value was 0.433.

Turning to A40C G88U C96U A122U U127G U148A A150U, the “polymerase ribozyme fitness (log ratio)” value was no more than -4.2.

As for A40C G42A A52C G94C C99U, the “polymerase ribozyme fitness (log ratio)” value was no more than -4.2.

A40U A41C C96U: the “polymerase ribozyme fitness (log ratio)” value is -0.566.

Take A40C G46A A91G U104G A119G U148G: the “polymerase ribozyme fitness (log ratio)” value is no more than -4.2.

Turning to A40G C87U C103G, the “polymerase ribozyme fitness (log ratio)” value was no more than -4.2.

Take A40U C54U A97U C99U: the “polymerase ribozyme fitness (log ratio)” value was -2.64.

Turning to A40G U53A A73U C103G, the “polymerase ribozyme fitness (log ratio)” value was no more than -4.2.

As to A40G G50U U56A G83C, the “polymerase ribozyme fitness (log ratio)” value was -4.02.

On to A40G A41G U53G C85A U127G C131U G143A, for which the “polymerase ribozyme fitness (log ratio)” value was no more than -4.2.

Take A40C G42C C69G C85A U104G G128C G133A: the “polymerase ribozyme fitness (log ratio)” value is no more than -4.2.

Take A40C G84A A97U: the “polymerase ribozyme fitness (log ratio)” value is -2.32.

In the case of A39U G81A C99U U104C G117A, the “polymerase ribozyme fitness (log ratio)” value was -3.48.

In the case of A40C A60U, the “polymerase ribozyme fitness (log ratio)” value amounted to 0.0412.

Consider A40G A52U A91C C108U G143C U148A, for which the “polymerase ribozyme fitness (log ratio)” value was no more than -4.2.

For A40G C87U, the “polymerase ribozyme fitness (log ratio)” value was -1.53.

As for A39U U45C C93U, the “polymerase ribozyme fitness (log ratio)” value was no more than -4.2.

Consider A40U A41U A49U G59A C87G U146G, for which the “polymerase ribozyme fitness (log ratio)” value is no more than -4.2.

In the case of A40C U135A, the “polymerase ribozyme fitness (log ratio)” value is -0.385.

For the variant A40G C125G, the “polymerase ribozyme fitness (log ratio)” value is -2.5.

For the variant A40G U56A, the “polymerase ribozyme fitness (log ratio)” value is -1.21.

In the case of A40U C114U G141C G152U, the “polymerase ribozyme fitness (log ratio)” value is -3.44.

A40U C93U U101G G128U: the “polymerase ribozyme fitness (log ratio)” value was -4.04.

As for A40U C114U, the “polymerase ribozyme fitness (log ratio)” value was -2.19.

Take A40G C87G C103A G117U: the “polymerase ribozyme fitness (log ratio)” value was no more than -4.2.

With A40U A98G, the “polymerase ribozyme fitness (log ratio)” value was -0.242.

A40G G48U G58U C76A: the “polymerase ribozyme fitness (log ratio)” value is no more than -4.2.

For A40C U55A G59A A113U C123A, the “polymerase ribozyme fitness (log ratio)” value was -0.982.

Regarding A41C A47C U56A C85U, the “polymerase ribozyme fitness (log ratio)” value is -1.41.

For A39U C79G G84U, the “polymerase ribozyme fitness (log ratio)” value is no more than -4.2.

For the variant A39U G74U G81C A91U A98G C99U G124A, the “polymerase ribozyme fitness (log ratio)” value was no more than -4.2.

Regarding A40C A98U A122U, the “polymerase ribozyme fitness (log ratio)” value stood at 0.766.

In the case of A40C C96U A122G G124C, the “polymerase ribozyme fitness (log ratio)” value was -0.809.

For A40C A41C G58C A91U G124A C125A, the “polymerase ribozyme fitness (log ratio)” value is no more than -4.2.

On to A40U U55A G59A C79U U82G G83A G128A U139G G143A, for which the “polymerase ribozyme fitness (log ratio)” value is no more than -4.2.

Turning to A40C C54U U56A G126U, the “polymerase ribozyme fitness (log ratio)” value was -0.0276.

For A39U U53A C75G G86U U146G, the “polymerase ribozyme fitness (log ratio)” value was no more than -4.2.

For the variant A41C A49C G50U C51A G92C A106G, the “polymerase ribozyme fitness (log ratio)” value is no more than -4.2.

As to A40U C54A A110G A120U, the “polymerase ribozyme fitness (log ratio)” value was -4.07.

On to A40G C105U A115U A138G, for which the “polymerase ribozyme fitness (log ratio)” value is no more than -4.2.

Regarding A40G U77G G80A C93A A107G A120C A121U, the “polymerase ribozyme fitness (log ratio)” value is no more than -4.2.

With A40G A52G A91U U102C A138U G143U, the “polymerase ribozyme fitness (log ratio)” value is no more than -4.2.

As to A39U G100A A110G A150U, the “polymerase ribozyme fitness (log ratio)” value was no more than -4.2.

With A40C C125A, the “polymerase ribozyme fitness (log ratio)” value is -0.0259.

Consider A40G A41G G67C A120C, for which the “polymerase ribozyme fitness (log ratio)” value is no more than -4.2.

As to A39U G42C U77C C85A C95G, the “polymerase ribozyme fitness (log ratio)” value was no more than -4.2.

In the case of A40C U44A G59A C93A U109A, the “polymerase ribozyme fitness (log ratio)” value was no more than -4.2.

As to A40U C54U G71U C95A U146C G152A, the “polymerase ribozyme fitness (log ratio)” value is no more than -4.2.

Regarding A40U C85G, the “polymerase ribozyme fitness (log ratio)” value is -1.32.

A40U C85A: the “polymerase ribozyme fitness (log ratio)” value is -1.44.

Consider A40G G59A C93A, for which the “polymerase ribozyme fitness (log ratio)” value is -4.07.

Regarding A40G U53G G84A A110G G136U, the “polymerase ribozyme fitness (log ratio)” value was no more than -4.2.

On to A40U C69A G143C, for which the “polymerase ribozyme fitness (log ratio)” value was -2.79.

Regarding A40U A49C, the “polymerase ribozyme fitness (log ratio)” value was no more than -4.2.

Take A40U G48C C85G C99A G143A: the “polymerase ribozyme fitness (log ratio)” value is no more than -4.2.

Consider A40C G68U G86A C103G, for which the “polymerase ribozyme fitness (log ratio)” value is no more than -4.2.

With A40U C116A, the “polymerase ribozyme fitness (log ratio)” value stood at 0.309.

A39U U53A A91G A97G U111G: the “polymerase ribozyme fitness (log ratio)” value is -4.05.

On to A40U C87U A89G, for which the “polymerase ribozyme fitness (log ratio)” value is -3.2.

On to A39U G59C G83U A147U, for which the “polymerase ribozyme fitness (log ratio)” value is -2.17.

For the variant A40C A60G U139C U144C, the “polymerase ribozyme fitness (log ratio)” value was -3.63.

For the variant A39U G84C, the “polymerase ribozyme fitness (log ratio)” value was -3.33.

As for A40G C95A U104G A142G, the “polymerase ribozyme fitness (log ratio)” value is -3.8.

As to A40G A115G A137G C149U, the “polymerase ribozyme fitness (log ratio)” value was -4.02.

Consider A40C A49U U56A C57A G88C U135A A137U, for which the “polymerase ribozyme fitness (log ratio)” value was no more than -4.2.

For the variant A40C G50U U148A, the “polymerase ribozyme fitness (log ratio)” value was no more than -4.2.

As for A40U U55A U101C A120C, the “polymerase ribozyme fitness (log ratio)” value was -0.406.

Turning to A40G G86A C95U C103G C108U C125G, the “polymerase ribozyme fitness (log ratio)” value is no more than -4.2.

As to A40C G94U C129G U139A G141U U146C, the “polymerase ribozyme fitness (log ratio)” value was no more than -4.2.

For A39U G59C G83U, the “polymerase ribozyme fitness (log ratio)” value is -2.72.

For A40C U144A, the “polymerase ribozyme fitness (log ratio)” value was -0.312.

For A40C U55A G59C C69U G84A, the “polymerase ribozyme fitness (log ratio)” value is -2.39.

For A40C G83C, the “polymerase ribozyme fitness (log ratio)” value was determined as 0.449.

As for A40C C54U G141U, the “polymerase ribozyme fitness (log ratio)” value was 0.7.

Regarding A40C G48C G81U C85A, the “polymerase ribozyme fitness (log ratio)” value was -1.52.

A40C C85U G133C A142G: the “polymerase ribozyme fitness (log ratio)” value is -3.92.

A40U A91C A120C C129A U151A: the “polymerase ribozyme fitness (log ratio)” value is no more than -4.2.

(Values after the RNAGym collection of RNA variant scans (doi:10.1073/pnas.2313332121).)
